Laboratory results taken from patent US20050164926A1 (published 2005).

Target: porcine trypsin (porcine, UniProt P00761 9-231)
Assay: cell-based or functional assay

Sequence of porcine trypsin (P00761 9-231 limits assumed): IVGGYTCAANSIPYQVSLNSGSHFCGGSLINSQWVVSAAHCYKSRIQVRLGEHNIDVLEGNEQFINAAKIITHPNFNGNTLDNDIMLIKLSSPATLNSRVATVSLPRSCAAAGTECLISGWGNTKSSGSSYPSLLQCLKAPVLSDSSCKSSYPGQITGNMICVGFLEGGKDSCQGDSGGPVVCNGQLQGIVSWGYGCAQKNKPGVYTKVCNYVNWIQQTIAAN

B1: ANV-KAPP (other)
chain: AQVLRGTVTDFPGFDERADAETLRKAMKGLGTDEESILTLLTSRSNAQRQEISAAFKTLFGRDLLDDLKSELTGKFEKLIVALMKPSRLYDAYELKHALKGAGTNEKVLTEIIASRTPEELRAIKQVYEEEYGSSLEDDVVGDTSGYYQRMLVVLLQANRDPDAGIDEAQVEQDAQALFQAGELKWGTDEEKFITIFGTRSVSHLRKVFDKYMTISGFQIEETIDRETSGNLEQLLLAVVKSIRSIPAYLAETLYYAMKGAGTDDHTLIRVMVSRSEIDLFNIRKEFRKNFATSLYSMIKGDTSGDYKKALLLLAGEDDEVCSEQAETGPCRAMISRWYFDVTEGKCAPFFYGGCGGNRNNFDTEEYCMAVCGSAI
apparent stoichiometry of inhibition (amidolysis of S2444, titration of trypsin activity): 1 mol inhibitor per mol enzyme
